Measurements: US20200308575A1 (TWIST BIOSCIENCE, published 2020)

Target: program cell death protein 1 (PD-1) (UniProt Q15116 25-167, limits assumed)
Experiment: SPR (Carterra LSA), IgG, monovalent affinity

Chain of program cell death protein 1 (PD-1) (Q15116 25-167 limits assumed): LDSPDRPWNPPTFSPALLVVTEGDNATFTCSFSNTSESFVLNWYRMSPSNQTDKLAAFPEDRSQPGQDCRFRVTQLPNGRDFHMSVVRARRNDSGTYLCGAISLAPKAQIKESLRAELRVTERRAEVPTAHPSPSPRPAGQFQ

Binder	Kd [nM]
PD1-23 (antibody, V domains shown, IgG in the assay) VH: QVQLVQSGAEVKKPGASVKVSCKASGYPFTSYGISWVRQAPGQGLEWMGWISAYNGNTNYAQKLQGRVTMTTDTSTSTAYMELRSLRSDDTAVYYCARDVDYSSGSGYWGQGTLVTVSS VL: SYELMQPPSVSVSPGQTARITCSGDALPKQYAYWYQQKPGQAPVLVIYKDTERPSGIPERFSGSSSGTTVTLTISGVQAEDEADYYCQSADNSITYRVFGGGTKLTVL	69.2
PD1-11 (antibody, V domains shown, IgG in the assay) VH: QVQLVQSGAEVKKPGASVKVSCKASGYTFSNYGFSWVRQAPGQGLEWMGWISPYSGNTKYAQKLQGRVTMTTDTSTSTAYMELRSLRSDDTAVYYCARDADYSIGSGYWGQGTLVTVSS VL: SYELMQPPSVSVSPGQTARITCSGDALPRQYAHWYQQKPGQAPVLVIYKDNVRPSGIPERFSGSSSGTTVTLTISGVQAEDEADYYCQSADTSTIYRVFGGGTKLTVL	48.1
PD1-30 (antibody, V domains shown, IgG in the assay) VH: QVQLVQSGAEVKKPGASVKVSCKASGYTFNNYGVSWVRQAPGQGLEWMGWVSAYSGNTNYAQKLQGRVTMTTDTSTSTAYMELRSLRSDDTAVYYCARDADYASGSGYWGQGTLVTVSS VL: SYELMQPPSVSVSPGQTARITCSGDALSNQYTYWYQQKPGQAPVLVIYKDKKRPSGIPERFSGSSSGTTVTLTISGVQAEDEADYYCQSADNSITYRVFGGGTKLTVL	68.8
PD1-43 (antibody, V domains shown, IgG in the assay) VH: QVQLVQSGAEVKKPGASVKVSCKASGYTFSNYGISWVRQAPGQGLEWMGWISAYSGNTKYAQKLQGRVTMTTDTSTSTAYMELRSLRSDDTAVYYCARDADYASGSGYWGQGTLVTVSS VL: SYELMQPPSVSVSPGQTARITCSGDALPRQYAHWYQQKPGQAPVLVIYKDNERPSGIPERFSGSSSGTTVTLTISGVQAEDEADYYCQSADTSTIYRVFGGGTKLTVL	54.4
PD1-4 (antibody, V domains shown, IgG in the assay) VH: QVQLVQSGAEVKKPGASVKVSCKASGYTFSTSGISWVRQAPGQGLEWMGWISAYNGNTNYAQKLQGRVTMTTDTSTSTAYMELRSLRSDDTAVYYCARDFDYSSGSGYWGQGTLVTVSS VL: SYELMQPPSVSVSPGQTARITCSGDALPKQYAYWYQQKPGQAPVLVIYKDTERPSGIPERFSGSSSGTTVTLTISGVQAEDEADYYCQSADNSITYRVFGGGTKLTVL	31.4
PD1-14 (antibody, V domains shown, IgG in the assay) VH: QVQLVQSGAEVKKPGASVKVSCKASGYPFTNYGISWVRQAPGQGLEWMGWTSAYSGNTNYAQKLQGRVTMTTDTSTSTAYMELRSLRSDDTAVYYCARDFDYSSGSGYWGQGTLVTVSS VL: SYELMQPPSVSVSPGQTARITCSGDALPKQYAYWYQQKPGQAPVLVIYKDTERRSGIPERFSGSSSGTTVTLTISGVQAEDEADYYCQSADNSITYRVFGGGTKLTVL	45.9
PD1-42 (antibody, V domains shown, IgG in the assay) VH: QVQLVQSGAEVKKPGASVKVSCKASGYTFNNFGISWVRQAPGQGLEWMGWISAYNGNTDYAQKLQGRVTMTTDTSTSTAYMELRSLRSDDTAVYYCARDMDYSSGSGYWGQGTLVTVSS VL: SYELMQPPSVSVSPGQTARITCSGDALSNQYAYWYQQKPGQAPVLVIYKDTETPSGIPERFSGSSSGTTVTLTISGVQAEDEADYYCQSADNSITYRVFGGGTKLTVL	53.6
PD1-36 (antibody, V domains shown, IgG in the assay) VH: QVQLVQSGAEVKKPGASVKVSCKASGYTFSSYGVSWVRQAPGQGLEWMGWISAYSGSTNYAQKLQGRVTMTTDTSTSTAYMELRSLRSDDTAVYYCARDAVYSSGSGYWGQGTLVTVSS VL: SYELMQPPSVSVSPGQTARITCSGDALPNQYAHWYQQKPGQAPVLVIYKDTQRPSGIPERFSGSSSGTTVTLTISGVQAEDEADYYCQSADNSITYRVFGGGTKLTVL	84.9
PD1-10 (antibody, V domains shown, IgG in the assay) VH: QVQLVQSGAEVKKPGASVKVSCKASGYRFTSYGISWVRQAPGQGLEWMGWISAYNGNTNYAQKLQGRVTMTTDTSTSTAYMELRSLRSDDTAVYYCARDADYASGSGYWGQGTLVTVSS VL: SYELMQPPSVSVSPGQTARITCSGDALPKQYAYWYQQKPGQAPVLVIYKDTERPSGIPERFSGSSSGTTVTLTISGVQAEDEADYYCQSADNSITYRVFGGGTKLTVL	47.4
PD1-27 (antibody, V domains shown, IgG in the assay) VH: QVQLVQSGAEVKKPGASVKVSCKASGYPFTNYGITWVRQAPGQGLEWMGWISAYNGNTNYAQKLQGRVTMTTDTSTSTAYMELRSLRSDDTAVYYCARDWDYSSGSGYWGQGTLVTVSS VL: SYELMQPPSVSVSPGQTARITCSGDILPKQYAYWYQQKPGQAPVLVIYKDNERASGIPERFSGSSSGTTVTLTISGVQAEDEADYYCQSADNSITYRVFGGGTKLTVL	88.6
PD1-25 (antibody, V domains shown, IgG in the assay) VH: QVQLVQSGAEVKKPGASVKVSCKASGYSFTRYGISWVRQAPGQGLEWMGWISPYSGNTKYAQKLQGRVTMTTDTSTSTAYMELRSLRSDDTAVYYCARDADYGSGSGYWGQGTLVTVSS VL: SYELMQPPSVSVSPGQTARITCSGDALPDQYAYWYQQKPGQAPVLVIYKDYERPSGIPERFSGSSSGTTVTLTISGVQAEDEADYYCQSADNSITYRVFGGGTKLTVL	76
PD1-12 (antibody, V domains shown, IgG in the assay) VH: QVQLVQSGAEVKKPGASVKVSCKASGYTFNTYGVSWVRQAPGQGLEWMGWISAYSGNTRYAQKLQGRVTMTTDTSTSTAYMELRSLRSDDTAVYYCARDFDYSSGSGYWGQGTLVTVSS VL: SYELMQPPSVSVSPGQTARITCSGDALPKQYAYWYQQKPGQAPVLVIYKDTERPSGIPERFSGSSSGTTVTLTISGVQAEDEADYYCQSADNSITYRVFGGGTKLTVL	53.5
PD1-17 (antibody, V domains shown, IgG in the assay) VH: QVQLVQSGAEVKKPGASVKVSCKASGYTFSKYGISWVRQAPGQGLEWMGWISAYSGHTDYAQKLQGRVTMTTDTSTSTAYMELRSLRSDDTAVYYCARDFDYSSGSGYWGQGTLVTVSS VL: SYELMQPPSVSVSPGQTARITCSGDALPEQYAYWYQQKPGQAPVLVIYKDTERSSGIPERFSGSSSGTTVTLTISGVQAEDEADYYCQSADNSITYRVFGGGTKLTVL	60.1
PD1-18 (antibody, V domains shown, IgG in the assay) VH: QVQLVQSGAEVKKPGASVKVSCKASGYTFNNYGISWVRQAPGQGLEWMGWISAYSGHTDYAQKLQGRVTMTTDTSTSTAYMELRSLRSDDTAVYYCARDWDYSSGSGYWGQGTLVTVSS VL: SYELMQPPSVSVSPGQTARITCSGDALSNQYGYWYQQKPGQAPVLVIYKDNERASGIPERFSGSSSGTTVTLTISGVQAEDEADYYCQSADNSITYRVFGGGTKLTVL	68.4
PD1-48 (antibody, V domains shown) VH: EVQLVESGGGLVQPGRSLRLSCAASGFTFDDYALHWVRQAPGKDLEWVSGISWNSGSQGYADSVKGRFTISRDNAKNSLYLQMNSLRAEDTALYYCVREKGPGLTGSTADYYGLDAWGQGTMVTVSS	64.3
PD1-21 (antibody, V domains shown) VH: EVQLVESGGGLVQPGRSLRLSCAASGFTFDDYAMHWVRQAPGKDLEWVSGISWNGGSMGYAASVKGRFTISRDNAKNSLYLQMNSLRAEDTALYYCVREKGPGLTGSTADYYGLDVWGQGTMVTVSS	92
PD1-44 (antibody, V domains shown) VH: EVQLVESGGGLVQPGRSLRLSCAASGFTFDDYALHWVRQAPGKDLEWVSGISWNSGSYGYADSVKGRFTISRDNAKNSLYLQMNSLRAEDTALYYCVREKGPGLTGSTADYYGLDAWGQGTMVTVSS	226
PD1-20 (antibody, V domains shown) VH: EVQLVESGGGLVQPGRSLRLSCAASGFTFDDYAMHWVRQAPGKDLEWVSGISWNGGSMGYADSVKGRFTISRDNAKNSLYLQMNSLRAEDTALYYCVREKGPGLTGSTADYYGLDVWGQGTMVTVSS	109
PD1-24 (antibody, V domains shown) VH: EVQLVESGGGLVQPGRSLRLSCAASGFTFDDYAMHWVRQAPGKDLEWVSGISWNSGSMGYAASVKGRFTISRDNAKNSLYLQMNSLRAEDTALYYCVREKGPGLTGSTADYYGLDAWGQGTMVTVSS	190
PD1-32 (antibody, V domains shown) VH: EVQLVESGGGLVQPGRSLRLSCAASGFTFDDYAMHWVRQAPGKDLEWVSGISWNSGSMGYADSVKGRFTISRDNAKNSLYLQMNSLRAEDTALYYCVREKGPGLTGSTADYYGLDAWGQGTMVTVSS	92.2
PD1-45 (antibody, V domains shown) VH: EVQLVESGGGLVQPGRSLRLSCAASGFTFDDYALHWVRQAPGKDLEWVSGISWNAGSQGYADSVKGRFTISRDNAKNSLYLQMNSLRAEDTALYYCVREKGPGLTGSTADYYGLDAWGQGTMVTVSS	243
PD1-38 (antibody, V domains shown) VH: EVQLVESGGGLVQPGRSLRLSCAASGFTFDDYALHWVRQAPGKDLEWVSGISWNGGSMGYADSVKGRFTISRDNAKNSLYLQMNSLRAEDTALYYCVREKGPGLTGSTADYYGLDAWGQGTMVTVSS	204
PD1-49 (antibody, V domains shown) VH: EVQLVESGGGLVQPGRSLRLSCAASGFTFDDYAFHWVRQAPGKDLEWVSGISWNSGSQGYADSVKGRFTISRDNAKNSLYLQMNSLRAEDTALYYCVREKGPGLTGSTADYYGLDAWGQGTMVTVSS	201
PD1-50 (antibody, V domains shown) VH: EVQLVESGGGLVQPGRSLRLSCAASGFTFDDYAFHWVRQAPGKDLEWVSGISWNAGSQGYADSVKGRFTISRDNAKNSLYLQMNSLRAEDTALYYCVREKGPGLTGSTADYYGLDAWGQGTMVTVSS	87.5
PD1-39 (antibody, V domains shown) VH: EVQLVESGGGLVQPGRSLRLSCAASGFTFDDYALHWVRQAPGKDLEWVSGISWNGGSYGYADSVKGRFTISRDNAKNSLYLQMNSLRAEDTALYYCVREKGPGLTGSTADYYGLDAWGQGTMVTVSS	240
PD1-22 (antibody, V domains shown) VH: EVQLVESGGGLVQPGRSLRLSCAASGFTFDDYAMHWVRQAPGKDLEWVSGISWNGGSMGYAASVKGRFTISRDNAKNSLYLQMNSLRAEDTALYYCVREKGPGLTGSTADYYGLDAWGQGTMVTVSS	132
